Common to all, as to experiment: covalent modification by UbVS (immunoblot of UbVS adducts)
Background: A western blot detects proteins with antibodies after separation by electrophoresis.

The target of one experiment is T1, UCH37 (Bos taurus, UniProt Q9XSJ0).
T1 construct: UCH37 was present in the reactions as a stoichiometric component of the 19S RP complex; from tissue; host or cells: bovine 19S complex (PA700), gift
T1 sequence (Q9XSJ0 1-328): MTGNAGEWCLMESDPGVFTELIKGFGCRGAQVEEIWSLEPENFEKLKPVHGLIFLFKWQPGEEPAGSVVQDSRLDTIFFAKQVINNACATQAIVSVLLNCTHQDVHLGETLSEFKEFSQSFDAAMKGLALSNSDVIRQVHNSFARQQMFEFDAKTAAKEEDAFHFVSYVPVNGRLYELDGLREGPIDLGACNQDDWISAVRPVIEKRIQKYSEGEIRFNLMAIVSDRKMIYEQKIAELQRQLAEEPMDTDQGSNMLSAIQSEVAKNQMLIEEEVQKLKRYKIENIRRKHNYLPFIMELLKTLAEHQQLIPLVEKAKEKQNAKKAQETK
T1 sequence (A1L5A6 1-407 partner): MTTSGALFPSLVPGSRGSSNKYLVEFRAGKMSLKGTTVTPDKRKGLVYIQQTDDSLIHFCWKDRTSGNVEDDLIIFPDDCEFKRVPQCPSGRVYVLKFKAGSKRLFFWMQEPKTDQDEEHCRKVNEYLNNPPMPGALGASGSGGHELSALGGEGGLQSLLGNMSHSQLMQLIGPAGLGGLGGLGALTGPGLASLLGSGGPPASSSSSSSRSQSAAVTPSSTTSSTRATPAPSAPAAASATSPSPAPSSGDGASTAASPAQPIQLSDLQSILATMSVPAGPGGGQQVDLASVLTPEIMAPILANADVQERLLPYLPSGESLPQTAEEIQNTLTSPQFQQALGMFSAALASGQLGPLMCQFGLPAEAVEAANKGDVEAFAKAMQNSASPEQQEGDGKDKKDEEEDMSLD
The experiment is classed as biochemical, bovine. Conditions: reactions in the presence of 19S RP, relative to the USP14 adduct; FIG. 5C lanes 2 and 4. How it is done: Two factors contribute to this observation.
(§1) UbVS was prepared as previously described (Borodovsky et al. (2001) supra). […] UbVS was then added to the sample to give approximately 1:1 stoichiometry with the 19S complex. Incubation was continued for another hour and then stopped by the addition of 2×SDS sample buffer. The reaction mixtures were resolved by 14% SDS-PAGE, transferred to nitrocellulose membrane, and the UbVS adducts were detected with mouse monoclonal anti-ubiquitin antibody (P4D1) (Santa Cruz).

The target of a further experiment is T2, full-length USP14 (Homo sapiens, UniProt P54578).
T2 construct: 3.5 μM full-length USP14 or USP14-AUBL (91-494) was incubated with or without 157 nM bovine 19S complex (PA700); GST (N); made in house
The experiment is classed as biochemical. The method, then:
(§2) Ubiquitin vinylsulfone (UbVS) is a specific covalent inhibitor of a large subset of deubiquitinating enzymes, and thus can be used as an active site-directed probe for the detection of DUB activity (Borodovsky et al. (2001) supra). In order to examine the effect of proteasome association on the activity of USP14, the purified recombinant USP14 proteins were pre-incubated with or without the 19S RP and then assayed for covalent modification by UbVS.
as §1

For the next experiment, the target named is T3, USP14-ΔUBL (91-494) (Homo sapiens, UniProt P54578).
T3 construct: 3.5 μM full-length USP14 or USP14-AUBL (91-494) was incubated with or without 157 nM bovine 19S complex (PA700); GST (N); made in house
Format: biochemical. Conditions: both in the absence and presence of the 19S regulatory particle; FIG. 5C lanes 1 and 2. How it is done: as §2, §1

T2 sequence (P54578 whole entry): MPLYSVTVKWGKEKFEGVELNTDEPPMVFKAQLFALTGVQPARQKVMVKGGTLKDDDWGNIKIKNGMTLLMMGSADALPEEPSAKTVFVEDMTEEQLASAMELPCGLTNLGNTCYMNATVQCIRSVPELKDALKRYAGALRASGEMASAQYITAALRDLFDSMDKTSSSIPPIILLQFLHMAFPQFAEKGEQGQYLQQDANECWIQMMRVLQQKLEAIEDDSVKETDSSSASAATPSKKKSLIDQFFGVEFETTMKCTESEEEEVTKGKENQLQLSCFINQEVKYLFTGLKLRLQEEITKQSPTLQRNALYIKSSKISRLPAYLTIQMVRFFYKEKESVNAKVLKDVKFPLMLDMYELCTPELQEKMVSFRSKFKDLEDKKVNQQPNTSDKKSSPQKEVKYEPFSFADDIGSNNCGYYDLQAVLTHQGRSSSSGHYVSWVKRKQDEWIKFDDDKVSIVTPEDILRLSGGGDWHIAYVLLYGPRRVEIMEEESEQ
T3 sequence (P54578 91-494, stated change not applied): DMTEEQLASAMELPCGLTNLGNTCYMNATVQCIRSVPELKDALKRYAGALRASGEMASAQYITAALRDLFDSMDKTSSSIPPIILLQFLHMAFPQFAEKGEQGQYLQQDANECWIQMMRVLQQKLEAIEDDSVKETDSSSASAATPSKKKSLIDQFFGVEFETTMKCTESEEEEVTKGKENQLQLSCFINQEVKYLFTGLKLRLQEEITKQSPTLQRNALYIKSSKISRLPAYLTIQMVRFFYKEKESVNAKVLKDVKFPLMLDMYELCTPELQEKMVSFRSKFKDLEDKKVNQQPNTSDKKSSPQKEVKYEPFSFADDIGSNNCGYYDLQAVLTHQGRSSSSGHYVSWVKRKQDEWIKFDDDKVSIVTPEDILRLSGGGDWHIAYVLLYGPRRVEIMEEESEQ

Consider Ubiquitin vinylsulfone [UbVS], for which, in the experiment with UCH37, the UCH37-UbVS adduct detected entry is on record as “only a trace amount”. For the same substance, the USP14-UbVS complex formation entry with full-length USP14 (full-length USP14 by itself, without 19S RP, FIG. 5C lane 3) is recorded as “no detectable USP14-UbVS complex formation”; with full-length USP14 (full-length USP14 with 19S regulatory particle added, FIG. 5C lane 4), “strong USP14-UbVS band”. Besides, in the experiment with USP14-ΔUBL (91-494), the “activity toward UbVS” value is listed as “extremely low activity”.

Source of the values: patent US20070292907A1, “Compositions and method for regulating ubiquitin-specific processing proteases” (priority 2005, published 2007).
